According to article PMC3695782:

Biological target: HIV-1 reverse transcriptase WT (Human immunodeficiency virus type 1) (UniProt P04585+P04585)
Assay: EMSA
Conditions: EFdA-MP at primer 3' end; Footprinting: 120 mM sodium cacodylate pH 7, 20 mM NaCl, 6 mM MgCl2, 1 uM EFdA-TP, 7 min pre-incubation with dTTP, then 1 mM ammonium iron sulfate 5 min …

For T/P-EFdA-MP (gel shift), the binding signal (fold stronger than K65R) was 1.3.
